According to patent US20250206818A1 (AGENUS, published 2025):

T1: human LAG-3 (human, UniProt P18627 23-450, limits assumed)
T1 construct: Selections used human LAG-3-Fc, human LAG-3-6His, a 30 aa LAG-3 peptide and/or cells with cynomolgus LAG-3; also called CD223
T1 sequence (looked up): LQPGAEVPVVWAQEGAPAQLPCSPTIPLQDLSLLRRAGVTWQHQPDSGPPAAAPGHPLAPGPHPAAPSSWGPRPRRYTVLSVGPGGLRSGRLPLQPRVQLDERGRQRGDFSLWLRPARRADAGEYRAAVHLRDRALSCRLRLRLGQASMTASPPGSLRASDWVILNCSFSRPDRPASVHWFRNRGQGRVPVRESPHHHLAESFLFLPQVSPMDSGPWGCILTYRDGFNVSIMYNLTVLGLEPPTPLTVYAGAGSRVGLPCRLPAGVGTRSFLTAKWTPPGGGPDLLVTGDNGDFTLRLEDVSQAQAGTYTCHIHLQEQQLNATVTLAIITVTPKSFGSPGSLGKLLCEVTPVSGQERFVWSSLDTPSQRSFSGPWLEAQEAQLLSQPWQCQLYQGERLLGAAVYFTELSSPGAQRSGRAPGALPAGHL

T2: recombinant human LAG-3 (human, UniProt P18627 23-450, limits assumed)
T2 sequence (looked up): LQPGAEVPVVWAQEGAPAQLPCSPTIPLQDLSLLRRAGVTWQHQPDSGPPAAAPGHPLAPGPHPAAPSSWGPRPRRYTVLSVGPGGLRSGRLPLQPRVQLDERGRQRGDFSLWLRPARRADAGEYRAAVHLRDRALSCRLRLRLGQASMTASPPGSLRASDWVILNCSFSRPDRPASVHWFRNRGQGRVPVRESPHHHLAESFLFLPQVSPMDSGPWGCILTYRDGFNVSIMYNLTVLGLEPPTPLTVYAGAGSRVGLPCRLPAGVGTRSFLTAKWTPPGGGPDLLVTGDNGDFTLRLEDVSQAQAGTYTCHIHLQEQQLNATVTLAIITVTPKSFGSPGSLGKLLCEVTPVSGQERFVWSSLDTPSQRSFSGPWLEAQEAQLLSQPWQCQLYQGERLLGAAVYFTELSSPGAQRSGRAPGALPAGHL

B1: P05E03 Fab (Fab, V domains shown)
VH: QVQLKESGAELVKPGASVELSCTASGFNIRDTYMYWVKQRPEQGLEWIGRIDPANGNTKFDPKFQDRATMTADTSSNTAYLQLSSLTSEDTAVYYCTTYFYRYDVGGFDYWGQGTTLTVS
VL: EIVLTQSPALMAASPGEKVTITCSVSSSISSSNLHWYQQKSGTSPKLWIYGTSNLASGVPVRFSGSGSGTSYSLTISSMEAEDAATYYCQQWSSYPFTFGSGTKLEIK
notes: Murine Fab, periplasmic extract
B2: P05E01 Fab (Fab, V domains shown)
VH: DVQLVESGAELVKPGASVKLSCTASGFTIKDTYIHWVKQRPEQGLEWIGEIDPANGNTKYDPKFQGKATITADTSSNTAYLQLSSLTSEDTAVYYCATYYYRYDVGGFDYWGQGTTLTVS
VL: DIVLTQSPALMAASPGEKVTITCSVSSSISSSNLHWFQQKSGTSPKLWIYGTSNLASGVPVRFSGSGSGTSYSLTISNMEAEDAATYYCQQWNSYPLTFGAGTKLELK
notes: as for B1
B3: P13B02-21 (antibody, IgG1, V domains shown)
VH: QVQMKQSGAEVVKPGASVKVSCTASGFNIKDTYIHWVRQAPGQGLEWIGEIDPANDNTKYDPKFQGRVTITADTSSNTVYLQLSSLRSEDTAVYYCATYYYRYDVGGFDYWGQGTLVTVSS
VL: EIVLTQSPGTLSLSPGERATLSCSVSSSISSSNLHWYQQKPGQAPRLLIYGTSNLASGIPDRFSGSGSGTDFTLTISRLEPEDFAVYYCQQWSSYPFTFGQGTKVEIK
notes: Humanized; generated as full length IgG1
B4: P13B02-33 (antibody, IgG1, V domains shown)
VH: QVQMKQSGAEVKKPGASVKVSCTASGFNIKDTYIHWVRQAPGQGLEWMGEIDPANDNTKYDPKFQGRVTITADTSTSTVYMELSSLRSEDTAVYYCATYYYKYDVGGFDYWGQGTLVTVSS
VL: EIVLTQSPGTLSLSPGERATLSCSVSSSISSSNLHWYQQKPGQAPRLLIYGTSNLASGIPDRFSGSGSGTDFTLTISRLEPEDFAVYYCQQWSSYPFTFGQGTKVEIK
notes: as for B3
B5: P13B02-35 (antibody, IgG1, V domains shown)
VH: QVQLKQSGAEVKKPGASVKVSCTASGFNIKDTYIHWVRQAPGQGLEWMGEIDPANDNTKYDPKFQGRVTITADTSTSTVYMELSSLRSEDTAVYYCATYYYKYDVGGFDYWGQGTLVTVSS
VL: EIVLTQSPGTLSLSPGERATLSCSVSSSISSSNLHWYQQKPGQAPRLLIYGTSNLASGIPDRFSGSGSGTDFTLTISRLEPEDFAVYYCQQWSSYPFTFGQGTKVEIK
notes: as for B3
B6: P13B02-31 (antibody, IgG1, V domains shown)
VH: QVQMVQSGAEVKKPGASVKVSCTASGFNIKDTYIHWVRQAPGQGLEWMGEIDPANDNTKYDPKFQGRVTITADTSTSTVYMELSSLRSEDTAVYYCATYYYKYDVGGFDYWGQGTLVTVSS
VL: EIVLTQSPGTLSLSPGERATLSCSVSSSISSSNLHWYQQKPGQAPRLLIYGTSNLASGIPDRFSGSGSGTDFTLTISRLEPEDFAVYYCQQWSSYPFTFGQGTKVEIK
notes: as for B3
B7: P13B02-28 (antibody, IgG1, V domains shown)
VH: QVQLVQSGAEVKKPGASVKVSCKASGFNIKDTYIHWVRQAPGQGLEWMGEIDPANDNTKYDPKFQGRVTITADTSTSTVYMELSSLRSEDTAVYYCATYYYKYDVGGFDYWGQGTLVTVSS
VL: EIVLTQSPGTLSLSPGERATLSCSVSSSISSSNLHWYQQKPGQAPRLLIYGTSNLASGIPDRFSGSGSGTDFTLTISRLEPEDFAVYYCQQWSSYPFTFGQGTKVEIK
notes: as for B3
B8: P13B02-22 (antibody, IgG1, V domains shown)
VH: QVQMKQSGAEVVKPGASVKVSCTASGFNIKDTYIHWVRQAPGQGLEWIGEIDPANDNTKYDPKFQGRVTITADTSSNTVYLQLSSLRSEDTAVYYCATYYYRYDVGGFDYWGQGTLVTVSS
VL: EIVLTQSPGTLSLSPGERATLSCSVSSSISSSNLHWYQQKPGQAPRLLIYGTSNLASGIPDRFSGSGSGTSYTLTISRLEPEDFAVYYCQQWSSYPFTFGQGTKVEIK
notes: as for B3
B9: P13B02-34 (antibody, IgG1, V domains shown)
VH: QVQLKQSGAEVKKPGASVKVSCKASGFNIKDTYIHWVRQAPGQGLEWMGEIDPANDNTKYDPKFQGRVTITADTSTSTVYMELSSLRSEDTAVYYCATYYYKYDVGGFDYWGQGTLVTVSS
VL: EIVLTQSPGTLSLSPGERATLSCSVSSSISSSNLHWYQQKPGQAPRLLIYGTSNLASGIPDRFSGSGSGTDFTLTISRLEPEDFAVYYCQQWSSYPFTFGQGTKVEIK
notes: as for B3
B10: P13B02-29 (antibody, IgG1, V domains shown)
VH: QVQLVQSGAEVKKPGASVKVSCTASGFNIKDTYIHWVRQAPGQGLEWMGEIDPANDNTKYDPKFQGRVTITADTSTSTVYMELSSLRSEDTAVYYCATYYYKYDVGGFDYWGQGTLVTVSS
VL: EIVLTQSPGTLSLSPGERATLSCSVSSSISSSNLHWYQQKPGQAPRLLIYGTSNLASGIPDRFSGSGSGTDFTLTISRLEPEDFAVYYCQQWSSYPFTFGQGTKVEIK
notes: as for B3
B11: P13B02-32 (antibody, IgG1, V domains shown)
VH: QVQMKQSGAEVKKPGASVKVSCKASGFNIKDTYIHWVRQAPGQGLEWMGEIDPANDNTKYDPKFQGRVTITADTSTSTVYMELSSLRSEDTAVYYCATYYYKYDVGGFDYWGQGTLVTVSS
VL: EIVLTQSPGTLSLSPGERATLSCSVSSSISSSNLHWYQQKPGQAPRLLIYGTSNLASGIPDRFSGSGSGTDFTLTISRLEPEDFAVYYCQQWSSYPFTFGQGTKVEIK
notes: as for B3
B12: P13B02-36 (antibody, IgG1, V domains shown)
VH: QVQLVQSGAEVKKPGASVKVSCKASGFNIKDTYIHWVRQAPGQGLEWMGEIDPANDNTKYDPKFQGRVTITADTSSNTVYMELSSLRSEDTAVYYCATYYYKYDVGGFDYWGQGTLVTVSS
VL: EIVLTQSPGTLSLSPGERATLSCSVSSSISSSNLHWYQQKPGQAPRLLIYGTSNLASGIPDRFSGSGSGTDFTLTISRLEPEDFAVYYCQQWSSYPFTFGQGTKVEIK
notes: as for B3
B13: P13B02-23 (antibody, IgG1, V domains shown)
VH: QVQMKQSGAEVVKPGASVKVSCTASGFNIKDTYIHWVRQAPGQGLEWIGEIDPANDNTKYDPKFQGRVTITADTSSNTVYLQLSSLRSEDTAVYYCATYYYRYDVGGFDYWGQGTLVTVSS
VL: EILLTQSPGTLSLSPGERATLSCSVSSSISSSNLHWFQQKPGQAPRLLIYGTSNLASGIPDRFSGSGSGTSYTLTISRLEPEDFAVYYCQQWSSYPFTFGQGTKVEIK
notes: as for B3
B14: P13B02-24 (antibody, IgG1, V domains shown)
VH: QVQMKQSGAEVVKPGASVKVSCTASGFNIKDTYIHWVRQAPGQGLEWIGEIDPANDNTKYDPKFQGRVTITADTSSNTVYLQLSSLRSEDTAVYYCATYYYRYDVGGFDYWGQGTLVTVSS
VL: EILLTQSPGTLSLSPGERATLSCSVSSSISSSNLHWFQQKPGQAPRLWIYGTSNLASGVPDRFSGSGSGTSYTLTISRLEPEDFAVYYCQQWSSYPFTFGQGTKVEIK
notes: as for B3
B15: P13B02-37 (antibody, IgG1, V domains shown)
VH: QVQMKQSGAEVKKPGASVKVSCTASGFNIKDTYIHWVRQAPGQGLEWMGEIDPANDNTKYDPKFQGRVTITADTSSNTVYMELSSLRSEDTAVYYCATYYYKYDVGGFDYWGQGTLVTVSS
VL: EIVLTQSPGTLSLSPGERATLSCSVSSSISSSNLHWYQQKPGQAPRLLIYGTSNLASGIPDRFSGSGSGTDFTLTISRLEPEDFAVYYCQQWSSYPFTFGQGTKVEIK
notes: as for B3
B16: P13B02-30 (antibody, V domains shown)
VH: QVQMVQSGAEVKKPGASVKVSCKASGFNIKDTYIHWVRQAPGQGLEWMGEIDPANDNTKYDPKFQGRVTITADTSTSTVYMELSSLRSEDTAVYYCATYYYKYDVGGFDYWGQGTLVTVSS
VL: EIVLTQSPGTLSLSPGERATLSCSVSSSISSSNLHWYQQKPGQAPRLLIYGTSNLASGIPDRFSGSGSGTDFTLTISRLEPEDFAVYYCQQWSSYPFTFGQGTKVEIK
notes: Humanized full length IgG1; made in three versions (G1m17; G1m17 N297A; G1m3 N297A)

The binders below were run against T1, human LAG-3 (assay: Fab phage display selection; periplasmic extracts screened by ELISA or flow cytometry).
Text: Anti-LAG-3 antibodies were identified by generation and selection of an immunized Fab phage display library. […] Per mouse, a Fab library was then generated by random-primed cDNA using total RNA as a template to amplify variable regions from mouse antibody genes. Heavy and kappa chain amplicons were combined and cloned into phagemid vectors. […] The 30 amino acid human LAG-3 peptide is a biotinylated peptide comprising the amino acid sequence of […] (SEQ ID NO: 199). Periplasmic extracts of selected Fab clones were then screened by ELISA or flow cytometry. Antibody sequencing and off-rate analysis were then performed on anti-LAG-3 Fabs.

Binding result, binds:
B1
B2

Each binder was assayed against T2, recombinant human LAG-3 (assay: surface plasmon resonance (data not shown)).

Binding result, binds:
B3
B4
B5
B6
B7
B8
B9
B10
B11
B12
B13
B14
B15
B16
